Laboratory results published in article PMC4434323.

molecular target: T1, Y75B8A.6 (Y75B8A.6) (Caenorhabditis elegans) (UniProt A0A168H365)
T1 sequence: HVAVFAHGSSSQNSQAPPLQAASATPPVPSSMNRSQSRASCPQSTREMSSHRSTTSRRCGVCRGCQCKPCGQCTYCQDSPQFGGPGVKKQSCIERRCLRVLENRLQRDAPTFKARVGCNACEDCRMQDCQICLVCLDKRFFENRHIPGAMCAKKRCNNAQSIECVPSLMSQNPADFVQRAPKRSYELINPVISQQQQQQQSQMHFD

Row | Sequence | binding signal (PBM E-score (-0.5 to 0.5))
1 | CCCGCGGG (double strand) [8-mer CCCGCGGG] | 0.451
2 | CCGCGCGC (double strand) [8-mer CCGCGCGC] | 0.462
3 | CCGCGGAA (double strand) [8-mer CCGCGGAA] | 0.468
4 | CCGCGGGA (double strand) [8-mer CCGCGGGA] | 0.458
5 | CGCGCGGC (double strand) [8-mer CGCGCGGC] | 0.451
6 | CGCGGAAA (double strand) [8-mer CGCGGAAA] | 0.457
7 | CGCGGAAC (double strand) [8-mer CGCGGAAC] | 0.454
8 | CGCGGCGC (double strand) [8-mer CGCGGCGC] | 0.461
9 | GCGCGCAA (double strand) [8-mer GCGCGCAA] | 0.458
10 | TCCGCGGA (double strand) [8-mer TCCGCGGA] | 0.471

molecular target: T2, lsy-27 (F47H4.1) (Caenorhabditis elegans) (UniProt O45526)
T2 sequence: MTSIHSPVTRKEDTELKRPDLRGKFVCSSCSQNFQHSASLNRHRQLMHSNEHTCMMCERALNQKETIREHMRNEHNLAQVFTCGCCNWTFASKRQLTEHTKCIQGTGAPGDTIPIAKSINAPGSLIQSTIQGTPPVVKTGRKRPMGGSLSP

Row | Sequence | binding signal (PBM E-score (-0.5 to 0.5))
11 | GGCTTCAC (double strand) [8-mer GGCTTCAC] | 0.49

tested on: T3, ztf-14 (M163.2) (Caenorhabditis elegans)
T3 sequence: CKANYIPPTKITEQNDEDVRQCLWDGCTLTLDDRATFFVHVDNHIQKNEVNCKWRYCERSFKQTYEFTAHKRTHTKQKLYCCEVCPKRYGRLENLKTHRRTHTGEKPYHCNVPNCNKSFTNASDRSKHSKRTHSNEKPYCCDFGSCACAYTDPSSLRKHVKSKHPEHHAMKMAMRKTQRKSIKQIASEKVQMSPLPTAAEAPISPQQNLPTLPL

Row | Sequence | binding signal (PBM E-score (-0.5 to 0.5))
12 | ACCACCCA (double strand) [8-mer ACCACCCA] | 0.469
13 | ACCACCCT (double strand) [8-mer ACCACCCT] | 0.463
14 | AGACCACC (double strand) [8-mer AGACCACC] | 0.494
15 | AGGCCACC (double strand) [8-mer AGGCCACC] | 0.453
16 | AGGGTAAA (double strand) [8-mer AGGGTAAA] | 0.46
17 | AGGTGGTC (double strand) [8-mer AGGTGGTC] | 0.475
18 | ATGGGTGG (double strand) [8-mer ATGGGTGG] | 0.452
19 | GACCACAC (double strand) [8-mer GACCACAC] | 0.488
20 | GACCACCA (double strand) [8-mer GACCACCA] | 0.454
21 | GACCACCC (double strand) [8-mer GACCACCC] | 0.499
22 | GACCCCCC (double strand) [8-mer GACCCCCC] | 0.478
23 | GACCTCCC (double strand) [8-mer GACCTCCC] | 0.479
24 | GGACCACC (double strand) [8-mer GGACCACC] | 0.495
25 | GGCCACCC (double strand) [8-mer GGCCACCC] | 0.494

tested on: T4, syd-9 (ZK867.1) (Caenorhabditis elegans)
T4 sequence: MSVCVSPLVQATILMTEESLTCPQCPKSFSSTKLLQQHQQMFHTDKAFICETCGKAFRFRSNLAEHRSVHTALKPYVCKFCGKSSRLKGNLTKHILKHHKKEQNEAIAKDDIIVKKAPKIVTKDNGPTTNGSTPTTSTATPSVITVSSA

Row | Sequence | binding signal (PBM E-score (-0.5 to 0.5))
26 | ATACAGTA (double strand) [8-mer ATACAGTA] | 0.492
27 | ATACTGTA (double strand) [8-mer ATACTGTA] | 0.493
28 | CTACAGTA (double strand) [8-mer CTACAGTA] | 0.49
29 | GTACAGTA (double strand) [8-mer GTACAGTA] | 0.495
30 | GTACGGTA (double strand) [8-mer GTACGGTA] | 0.492
31 | GTACTGTA (double strand) [8-mer GTACTGTA] | 0.496
32 | TACAGTAA (double strand) [8-mer TACAGTAA] | 0.494
33 | TACTGTAA (double strand) [8-mer TACTGTAA] | 0.494

molecular target: T5, che-1 (C55B7.12) (Caenorhabditis elegans) (UniProt Q966L8)
T5 sequence: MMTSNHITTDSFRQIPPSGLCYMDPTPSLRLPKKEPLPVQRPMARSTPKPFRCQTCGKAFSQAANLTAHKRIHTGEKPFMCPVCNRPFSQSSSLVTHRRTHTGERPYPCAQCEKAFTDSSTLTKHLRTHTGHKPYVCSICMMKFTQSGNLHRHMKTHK

Row | Sequence | binding signal (PBM E-score (-0.5 to 0.5))
34 | GGCTTCAC (double strand) [8-mer GGCTTCAC] | 0.492

molecular target: T6, F52B5.7 (F52B5.7) (Caenorhabditis elegans) (UniProt Q7YWZ7)
T6 sequence: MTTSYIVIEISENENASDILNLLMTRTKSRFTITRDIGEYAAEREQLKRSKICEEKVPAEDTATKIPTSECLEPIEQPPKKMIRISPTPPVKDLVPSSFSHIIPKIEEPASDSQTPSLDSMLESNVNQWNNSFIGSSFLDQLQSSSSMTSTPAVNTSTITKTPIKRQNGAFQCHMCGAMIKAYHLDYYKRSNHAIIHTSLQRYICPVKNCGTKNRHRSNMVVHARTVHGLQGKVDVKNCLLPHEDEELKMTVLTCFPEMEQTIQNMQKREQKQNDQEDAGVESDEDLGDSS

Row | Sequence | binding signal (PBM E-score (-0.5 to 0.5))
35 | ACCCATGG (double strand) [8-mer ACCCATGG] | 0.485
36 | ACCCCATA (double strand) [8-mer ACCCCATA] | 0.496
37 | ACCCCATG (double strand) [8-mer ACCCCATG] | 0.486
38 | ATGGATAC (double strand) [8-mer ATGGATAC] | 0.485
39 | ATGGGGTA (double strand) [8-mer ATGGGGTA] | 0.488
40 | ATGGGTAC (double strand) [8-mer ATGGGTAC] | 0.488
41 | CCATGGGG (double strand) [8-mer CCATGGGG] | 0.482
42 | CCCATGGG (double strand) [8-mer CCCATGGG] | 0.485
43 | CCCCATAA (double strand) [8-mer CCCCATAA] | 0.495
44 | CCCCATAG (double strand) [8-mer CCCCATAG] | 0.492
45 | CCCCATGA (double strand) [8-mer CCCCATGA] | 0.495
46 | CCCCCATA (double strand) [8-mer CCCCCATA] | 0.485
47 | GCCCCATA (double strand) [8-mer GCCCCATA] | 0.487
48 | GTACCATA (double strand) [8-mer GTACCATA] | 0.487
49 | TACCCATA (double strand) [8-mer TACCCATA] | 0.485

molecular target: T7, lsl-1 (F52F12.4) (Caenorhabditis elegans) (UniProt O02273)
T7 sequence: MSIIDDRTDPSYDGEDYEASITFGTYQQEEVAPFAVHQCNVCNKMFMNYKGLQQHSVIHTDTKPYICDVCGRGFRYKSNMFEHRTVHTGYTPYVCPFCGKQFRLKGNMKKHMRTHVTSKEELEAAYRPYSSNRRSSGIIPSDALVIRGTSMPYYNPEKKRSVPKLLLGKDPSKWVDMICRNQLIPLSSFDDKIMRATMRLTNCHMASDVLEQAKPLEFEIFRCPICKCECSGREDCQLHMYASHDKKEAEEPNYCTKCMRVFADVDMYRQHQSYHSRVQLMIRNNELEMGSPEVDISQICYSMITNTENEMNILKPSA

Row | Sequence | binding signal (PBM E-score (-0.5 to 0.5))
50 | ATACAGTA (double strand) [8-mer ATACAGTA] | 0.491
51 | ATACCGTA (double strand) [8-mer ATACCGTA] | 0.492
52 | ATACGGTA (double strand) [8-mer ATACGGTA] | 0.495
53 | ATACTGTA (double strand) [8-mer ATACTGTA] | 0.494
54 | CTACAGTA (double strand) [8-mer CTACAGTA] | 0.498
55 | CTACCGTA (double strand) [8-mer CTACCGTA] | 0.498
56 | CTACGGTA (double strand) [8-mer CTACGGTA] | 0.491
57 | CTACTGTA (double strand) [8-mer CTACTGTA] | 0.491
58 | GTACAGTA (double strand) [8-mer GTACAGTA] | 0.495
59 | GTACGGTA (double strand) [8-mer GTACGGTA] | 0.494
60 | GTACTGTA (double strand) [8-mer GTACTGTA] | 0.497
61 | TACAGTAA (double strand) [8-mer TACAGTAA] | 0.495
62 | TACCGTAA (double strand) [8-mer TACCGTAA] | 0.493
63 | TACGGTAA (double strand) [8-mer TACGGTAA] | 0.492
64 | TACTGTAA (double strand) [8-mer TACTGTAA] | 0.49

molecular target: klf-3 (F54H5.4) (Caenorhabditis elegans) (UniProt Q65ZG6)
Sequence (Q65ZG6 180-315): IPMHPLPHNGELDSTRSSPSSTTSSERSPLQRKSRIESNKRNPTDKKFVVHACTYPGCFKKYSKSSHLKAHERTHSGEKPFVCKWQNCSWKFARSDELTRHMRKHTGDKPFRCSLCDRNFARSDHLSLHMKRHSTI

Row | Sequence | binding signal (PBM E-score (-0.5 to 0.5))
65 | AACGCCCA (double strand) [8-mer AACGCCCA] | 0.483
66 | AAGGGCGT (double strand) [8-mer AAGGGCGT] | 0.487
67 | ACGCCCAT (double strand) [8-mer ACGCCCAT] | 0.49
68 | AGGGCGTA (double strand) [8-mer AGGGCGTA] | 0.484
69 | AGGGCGTG (double strand) [8-mer AGGGCGTG] | 0.491
70 | ATACGCCC (double strand) [8-mer ATACGCCC] | 0.48
71 | CAACGCCC (double strand) [8-mer CAACGCCC] | 0.482
72 | CACGCCCA (double strand) [8-mer CACGCCCA] | 0.49
73 | CCACACCC (double strand) [8-mer CCACACCC] | 0.486
74 | CCACGCCC (double strand) [8-mer CCACGCCC] | 0.494
75 | CCCCGCCC (double strand) [8-mer CCCCGCCC] | 0.489
76 | CCCGCCCA (double strand) [8-mer CCCGCCCA] | 0.485
77 | CTACGCCC (double strand) [8-mer CTACGCCC] | 0.48
78 | TACGCCCA (double strand) [8-mer TACGCCCA] | 0.486
